# Reference: patent US20140348819A1, “Methods of Treating Cancer” (Dana-Farber Cancer Institute, Inc., priority 2011, published 2014)
# B1: GDNF (protein, UniProt P39905 78-211, looked up)
# Glial cell line-derived …: SPDKQMAVLPRRERNRQAAAANPENSRGKGRRGQRGKNRGCVLTAIHLNVTDLGLGYETKEELIFRYCSGSCDAAETTYDKILKNLSRNRRLVSDKVGQACCRPIAFDDDLSFLDDNLVYHILRKHSAKRCGCI
# Test system: six V600E BRAF melanoma cell lines
# Test: Screening of recombinant RTK ligands for ability to confer resistance to BRAFi (PLX4720) or MEKi (PD184352) (Table 4)
# Assay type: cell-based, human
# Design: ability of recombinant RTK ligand to confer resistance / ability of recombinant RTK ligand to confer resistance (screening value): scale not given here
# How it was run: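 Six V600E BRAF melanoma lines treated with PLX4720 or PD184352 after addition of 22 recombinant RTK ligands, scored for drug resistance. Activation of selected RTKs confirmed by western blotting and high-throughput tyrosine kinase phosphorylation profiling.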
molecule,measurement,setting,value
B1,ability of recombinant RTK ligand to confer resistance,"A2058, PD184352 - 1 uM, ligand 0.4 ng/ml",0.98
same,ability of recombinant RTK ligand to confer resistance,"A2058, PD184352 - 1 uM, ligand 1.6 ng/ml",1.03
same,ability of recombinant RTK ligand to confer resistance,"A2058, PD184352 - 1 uM, ligand 6.25 ng/ml",1.00
same,ability of recombinant RTK ligand to confer resistance,"A2058, PD184352 - 1 uM, ligand 25 ng/ml",0.93
same,ability of recombinant RTK ligand to confer resistance,"A2058, PD184352 - 1 uM, ligand 100 ng/ml",0.92
same,ability of recombinant RTK ligand to confer resistance,"A2058, PLX4720 - 2 uM, ligand 0.4 ng/ml",0.97
same,ability of recombinant RTK ligand to confer resistance,"A2058, PLX4720 - 2 uM, ligand 1.6 ng/ml",0.97
same,ability of recombinant RTK ligand to confer resistance,"A2058, PLX4720 - 2 uM, ligand 6.25 ng/ml",0.98
same,ability of recombinant RTK ligand to confer resistance,"A2058, PLX4720 - 2 uM, ligand 25 ng/ml",0.94
same,ability of recombinant RTK ligand to confer resistance,"A2058, PLX4720 - 2 uM, ligand 100 ng/ml",0.97
same,ability of recombinant RTK ligand to confer resistance,"C32, PD184352 - 1 uM, ligand 0.4 ng/ml",1.08
same,ability of recombinant RTK ligand to confer resistance,"C32, PD184352 - 1 uM, ligand 1.6 ng/ml",1.13
same,ability of recombinant RTK ligand to confer resistance,"C32, PD184352 - 1 uM, ligand 6.25 ng/ml",1.03
same,ability of recombinant RTK ligand to confer resistance,"C32, PD184352 - 1 uM, ligand 25 ng/ml",0.96
same,ability of recombinant RTK ligand to confer resistance,"C32, PD184352 - 1 uM, ligand 100 ng/ml",0.94
same,ability of recombinant RTK ligand to confer resistance,"C32, PLX4720 - 2 uM, ligand 0.4 ng/ml",1.04
same,ability of recombinant RTK ligand to confer resistance,"C32, PLX4720 - 2 uM, ligand 1.6 ng/ml",1.11
same,ability of recombinant RTK ligand to confer resistance,"C32, PLX4720 - 2 uM, ligand 6.25 ng/ml",1.03
same,ability of recombinant RTK ligand to confer resistance,"C32, PLX4720 - 2 uM, ligand 25 ng/ml",0.91
same,ability of recombinant RTK ligand to confer resistance,"C32, PLX4720 - 2 uM, ligand 100 ng/ml",0.94
same,ability of recombinant RTK ligand to confer resistance,"Colo 829, PD184352 - 1 uM, ligand 0.4 ng/ml",0.95
same,ability of recombinant RTK ligand to confer resistance,"Colo 829, PD184352 - 1 uM, ligand 1.6 ng/ml",0.96
same,ability of recombinant RTK ligand to confer resistance,"Colo 829, PD184352 - 1 uM, ligand 6.25 ng/ml",0.96
same,ability of recombinant RTK ligand to confer resistance,"Colo 829, PD184352 - 1 uM, ligand 25 ng/ml",1.07
same,ability of recombinant RTK ligand to confer resistance,"Colo 829, PD184352 - 1 uM, ligand 100 ng/ml",0.98
same,ability of recombinant RTK ligand to confer resistance,"Colo 829, PLX4720 - 2 uM, ligand 0.4 ng/ml",1.00
same,ability of recombinant RTK ligand to confer resistance,"Colo 829, PLX4720 - 2 uM, ligand 1.6 ng/ml",1.00
same,ability of recombinant RTK ligand to confer resistance,"Colo 829, PLX4720 - 2 uM, ligand 6.25 ng/ml",0.96
same,ability of recombinant RTK ligand to confer resistance,"Colo 829, PLX4720 - 2 uM, ligand 25 ng/ml",1.09
same,ability of recombinant RTK ligand to confer resistance,"Colo 829, PLX4720 - 2 uM, ligand 100 ng/ml",1.00
same,ability of recombinant RTK ligand to confer resistance,"G-361, PD184352 - 1 uM, ligand 0.4 ng/ml",1.00
same,ability of recombinant RTK ligand to confer resistance,"G-361, PD184352 - 1 uM, ligand 1.6 ng/ml",0.94
same,ability of recombinant RTK ligand to confer resistance,"G-361, PD184352 - 1 uM, ligand 6.25 ng/ml",1.04
same,ability of recombinant RTK ligand to confer resistance,"G-361, PD184352 - 1 uM, ligand 25 ng/ml",0.92
same,ability of recombinant RTK ligand to confer resistance,"G-361, PD184352 - 1 uM, ligand 100 ng/ml",0.95
same,ability of recombinant RTK ligand to confer resistance,"G-361, PLX4720 - 2 uM, ligand 0.4 ng/ml",0.94
same,ability of recombinant RTK ligand to confer resistance,"G-361, PLX4720 - 2 uM, ligand 1.6 ng/ml",0.94
same,ability of recombinant RTK ligand to confer resistance,"G-361, PLX4720 - 2 uM, ligand 6.25 ng/ml",0.93
same,ability of recombinant RTK ligand to confer resistance,"G-361, PLX4720 - 2 uM, ligand 25 ng/ml",0.87
same,ability of recombinant RTK ligand to confer resistance,"G-361, PLX4720 - 2 uM, ligand 100 ng/ml",0.79
same,ability of recombinant RTK ligand to confer resistance,"SK-MEL-5, PD184352 - 1 uM, ligand 0.4 ng/ml",0.99
same,ability of recombinant RTK ligand to confer resistance,"SK-MEL-5, PD184352 - 1 uM, ligand 1.6 ng/ml",0.89
same,ability of recombinant RTK ligand to confer resistance,"SK-MEL-5, PD184352 - 1 uM, ligand 6.25 ng/ml",1.03
same,ability of recombinant RTK ligand to confer resistance,"SK-MEL-5, PD184352 - 1 uM, ligand 25 ng/ml",0.94
same,ability of recombinant RTK ligand to confer resistance,"SK-MEL-5, PD184352 - 1 uM, ligand 100 ng/ml",0.93
same,ability of recombinant RTK ligand to confer resistance,"SK-MEL-5, PLX4720 - 2 uM, ligand 0.4 ng/ml",1.04
same,ability of recombinant RTK ligand to confer resistance,"SK-MEL-5, PLX4720 - 2 uM, ligand 1.6 ng/ml",0.71
same,ability of recombinant RTK ligand to confer resistance,"SK-MEL-5, PLX4720 - 2 uM, ligand 6.25 ng/ml",1.00
same,ability of recombinant RTK ligand to confer resistance,"SK-MEL-5, PLX4720 - 2 uM, ligand 25 ng/ml",1.01
same,ability of recombinant RTK ligand to confer resistance,"SK-MEL-5, PLX4720 - 2 uM, ligand 100 ng/ml",1.08
same,ability of recombinant RTK ligand to confer resistance,"SK-MEL-28, PD184352 - 1 uM, ligand 0.4 ng/ml",0.99
same,ability of recombinant RTK ligand to confer resistance,"SK-MEL-28, PD184352 - 1 uM, ligand 1.6 ng/ml",1.03
same,ability of recombinant RTK ligand to confer resistance,"SK-MEL-28, PD184352 - 1 uM, ligand 6.25 ng/ml",1.02
same,ability of recombinant RTK ligand to confer resistance,"SK-MEL-28, PD184352 - 1 uM, ligand 25 ng/ml",0.92
same,ability of recombinant RTK ligand to confer resistance,"SK-MEL-28, PD184352 - 1 uM, ligand 100 ng/ml",0.96
same,ability of recombinant RTK ligand to confer resistance,"SK-MEL-28, PLX4720 - 2 uM, ligand 0.4 ng/ml",1.04
same,ability of recombinant RTK ligand to confer resistance,"SK-MEL-28, PLX4720 - 2 uM, ligand 1.6 ng/ml",0.91
same,ability of recombinant RTK ligand to confer resistance,"SK-MEL-28, PLX4720 - 2 uM, ligand 6.25 ng/ml",1.05
same,ability of recombinant RTK ligand to confer resistance,"SK-MEL-28, PLX4720 - 2 uM, ligand 25 ng/ml",0.97
same,ability of recombinant RTK ligand to confer resistance,"SK-MEL-28, PLX4720 - 2 uM, ligand 100 ng/ml",1.01
